From paper PMC13477270 (Nature structural & molecular biology, 2025)

Target: the molecule itself
Test: SEC-MALS

B1: miniTRIM37 RING–B-box-2–hcc B-box-2 mutant (other)
chain: MDEQSVESIAEVFRCFICMEKLRDARLCPHCSKLCCFSCIRRWLTEQRAQCPHCRAPLQLRELVNCRWAEEVTQQLDTLQLCSLTKHEENEKDKCENHHEKLSVFCWTCKKCICAQCAAWGGMHGGHTFKPLAEIYEQHVTKVNEEVAKLRRRLMELITERNQVAKRVPKAPPEEKEALIARGKALGEETELLESLLQEVEHQLRSCSKSELISKSSEILMMFQQVHRK
stoichiometry N: 2
